Test results as given in article PMC6771245, “CMKLR1-targeting peptide tracers for PET/MR imaging of breast cancer” (Theranostics, 2019).
*1 amine or outer side, *2 acyl side, *3 side chain or, on linkers, in order; H or OH if unused. Where a SMILES comes first, the peptide text is derived from it. [ ]: non-standard residue; d: D form. The star is where a group is joined. X1 = O=C(O)CN1CCN(CC(=O)O)CCN(CC(=O)NCCCOCCOCCOCCCN*)CCN(CC(=O)O)CC1; DOTA = O=C(O)CN1CCN(CC(=O)O)CCN(CC(=O)*)CCN(CC(=O)O)CC1; NH(CH2)9CO = O=C(CCCCCCCCCN[*:1])[*:2]; Hyp = O=C(O)[C@@H]1C[C@@H](O)CN1; Tic = O=C(O)[C@@H]1Cc2ccccc2CN1; Cha = N[C@@H](CC1CCCCC1)C(=O)O; Cit = NC(=O)NCCC[C@H](N)C(=O)O; Suc = O=C(CCC(=O)[*:2])[*:1]; Octanoyl = CCCCCCCC(=O)*; Ahx = NCCCCCC(=O)O

Columns and labels:
[1] = system: DU4475/A549 xenograft model; experiment: in vivo; details: mouse
From the text: (§1) For in vivo experiments, at least 8-week-old female athymic NMRI-Foxn1^nu /Foxn1^nu mice (Janvier Labs, Saint-Berthevin, France) were used. Animal care followed institutional guidelines and all experiments were approved by local animal research authorities. For the generation of tumor xenografts, 5 x 10^6 cells of both DU4475 and A549 cells were inoculated subcutaneously into the right and left shoulder, respectively (1:1 phosphate-buffered saline [PBS]/Matrigel Basement Membrane Matrix High Concentration, Corning, Corning, USA). Part of the animals received SW13 lung cancer cells as a CMKLR1-negative control tumor. For the analysis of biodistribution, only data of […] and A549 xenograft tumors are used. Tumors were allowed to grow for two to four weeks (tumor volume > 100 mm^3) after cell inoculation.
(§2) Radiolabeling experiments were performed on a Modular Lab PharmTracer synthesis module (Eckert & Ziegler, Berlin, Germany) which allows fully automated cassette-based labeling of gallium tracers utilizing a pharmaceutical grade ^68Ge/^68Ga generator (GalliaPharm, 1.85 GBq, good manufacturing practice [GMP]-certified; Eckert & Ziegler GmbH, Berlin, Germany). Cassettes were GMP-certified and sterile. They were used without pre-conditioning of the cartridges. The gallium generator was eluted with aqueous HCl (0.1 M, 7 mL) and the eluate was purified on an ion-exchange cartridge followed by elution using 1 mL of 0.1 M HCl in acetone. The peptide-DOTA conjugate (50 µg from a stock solution 1 mg/mL in 10% dimethyl sulfoxide [DMSO] in water) was mixed with 500 µL 0.1 M HEPES buffer (pH 7) and heated for 500 seconds at 95 °C. After the reaction, the mixture was passed through a C-18 cartridge for purification and the tracer was eluted from the cartridge with ethanol. In order to control the quality of radiolabeling, the radiochemical yield, purity, and specific activity for all five peptide-DOTA conjugates and each individual labeling experiment was determined. Overall, a radiochemical yield of 82.1% ± 6.7%, a radiochemical purity of 98.1 ± 4.6% and a molar activity of 8.6 GBq/µmol ± 2.7 GBq/µmol was achieved (Table S1). Before animal injection, the activity was equilibrated to neutral pH using 1 M sodium hydrogen carbonate. It was further diluted with saline to ≤ 10% ethanol.
(§3) Tumor-bearing mice were injected with approximately 10 MBq of ^68Ga-labeled DOTA-peptide or 1 MBq of ^177Lu-labeled DOTA-peptide to the tail vein via a catheter. Mice were sacrificed and dissected one or two hours after injection. Tumor, blood, stomach, pancreas, small intestine, colon, liver, spleen, kidney, heart, lung, muscle and femur samples were weighed and uptake of radioactivity was measured by a gamma counter. To determine the effect of unlabeled ligand on the tumor uptake, 200 nmol CG34 peptide (100-fold excess) was co-injected.

in vivo = details: female, mouse, iv, 10 MBq, total radioactivity
From the text: as §1, §2, §3

[2] = athymic NMRI-Foxn1^nu/Foxn1^nu, liver uptake
[3] = athymic NMRI-Foxn1^nu/Foxn1^nu, A549 tumor uptake
[4] = athymic NMRI-Foxn1^nu/Foxn1^nu, DU4475 tumor uptake
[5] = athymic NMRI-Foxn1^nu/Foxn1^nu, blood uptake
[6] = athymic NMRI-Foxn1^nu/Foxn1^nu, heart uptake
[7] = athymic NMRI-Foxn1^nu/Foxn1^nu, kidney uptake
[8] = athymic NMRI-Foxn1^nu/Foxn1^nu, lung uptake
[9] = athymic NMRI-Foxn1^nu/Foxn1^nu, muscle uptake
[10] = athymic NMRI-Foxn1^nu/Foxn1^nu, spleen uptake
[11] = athymic NMRI-Foxn1nu/Foxn1nu, colon uptake
[12] = athymic NMRI-Foxn1nu/Foxn1nu, femur uptake
[13] = athymic NMRI-Foxn1nu/Foxn1nu, muscle uptake
[14] = athymic NMRI-Foxn1nu/Foxn1nu, pancreas uptake
[15] = athymic NMRI-Foxn1nu/Foxn1nu, small intestine uptake
[16] = athymic NMRI-Foxn1nu/Foxn1nu, spleen uptake
[17] = athymic NMRI-Foxn1nu/Foxn1nu, stomach uptake
[18] = athymic NMRI-Foxn1nu/Foxn1nu, tumor-to-blood ratio
[19] = athymic NMRI-Foxn1nu/Foxn1nu, tumor-to-kidney ratio
[20] = athymic NMRI-Foxn1nu/Foxn1nu, tumor-to-liver ratio
[21] = athymic NMRI-Foxn1nu/Foxn1nu, tumor-to-muscle ratio
[22] = athymic NMRI-Foxn1nu/Foxn1nu, tumor-to-pancreas ratio

SMILES	tissue uptake at 1 h (in vivo; [2]) [%ID/g]	tissue uptake at 2 h (in vivo; [2]) [%ID/g]	DU4475 tumor uptake after two hours as % of the 1 h-value [1]	higher uptake in CMKLR1-positive DU4475 tumors than in target-negative A549 tumors [1] [fold]	tissue uptake at 1 h (in vivo; [3]) [%ID/g]	tissue uptake at 1 h (in vivo; [4]) [%ID/g]	tissue uptake at 2 h (in vivo; [4]) [%ID/g]	tissue uptake at 1 h (in vivo; [5]) [%ID/g]	tissue uptake at 2 h (in vivo; [5]) [%ID/g]	tissue uptake at 1 h (in vivo; [6]) [%ID/g]	tissue uptake at 2 h (in vivo; [6]) [%ID/g]	tissue uptake at 1 h (in vivo; [7]) [%ID/g]	tissue uptake at 2 h (in vivo; [7]) [%ID/g]	tissue uptake at 1 h (in vivo; [8]) [%ID/g]	tissue uptake at 2 h (in vivo; [8]) [%ID/g]	tissue uptake at 1 h (in vivo; [9]) [%ID/g]	tissue uptake at 1 h (in vivo; [10]) [%ID/g]	tissue uptake at 1 h (in vivo; [11]) [%ID/g]	tissue uptake at 2 h (in vivo; [11]) [%ID/g]	tissue uptake at 1 h (in vivo; [12]) [%ID/g]	further results
CSCC[C@H](NC(=O)CNC(=O)[C@@H]1CCCN1C(=O)[C@H](CC1CCCCC1)NC(=O)[C@H](Cc1ccc(O)cc1)NC(=O)CCCCCNC(=O)CN1CCN(CC(=O)O)CCN(CC(=O)O)CCN(CC(=O)O)CC1)C(=O)N[C@@H](Cc1ccc(O)cc1)C(=O)N[C@@H](C)C(=O)N[C@@H](Cc1ccccc1)C(=O)N[C@H](Cc1ccccc1)C(=O)O [[^68Ga]Ga-DOTA-AHX-CG36, metal not drawn] ({DOTA-Ahx}-Y[Cha]PGMYAF[dF]-OH)	6.4	4.9																			difference in uptake between target-positive and target-negative tumor [1]: no clear difference in uptake between target-positive and target-negative tumor
C[C@@H](NC(=O)[C@H](Cc1ccccc1)NC(=O)[C@H](CCCNC(N)=O)NC(=O)CNC(=O)[C@@H]1C[C@@H](O)CN1C(=O)[C@H](CC1CCCCC1)NC(=O)[C@H](Cc1ccc(O)cc1)NC(=O)CCC(=O)NCCCOCCOCCOCCCNC(=O)CN1CCN(CC(=O)O)CCN(CC(=O)O)CCN(CC(=O)O)CC1)C(=O)N1Cc2ccccc2C[C@H]1C(=O)N[C@@H](CO)C(=O)O [[^68Ga]Ga-DOTA-TTDS-CG34, metal not drawn] ({X1-Suc}-Y[Cha][Hyp]G[Cit]F[dA][Tic]S-OH)																					difference in uptake between target-positive and target-negative tumor [1]: no clear difference in uptake between target-positive and target-negative tumor
C[C@@H](NC(=O)[C@H](Cc1ccccc1)NC(=O)[C@H](CCCNC(N)=O)NC(=O)CNC(=O)[C@@H]1C[C@@H](O)CN1C(=O)[C@H](CC1CCCCC1)NC(=O)[C@H](Cc1ccc(O)cc1)NC(=O)CCCCCNC(=O)CN1CCN(CC(=O)O)CCN(CC(=O)O)CCN(CC(=O)O)CC1)C(=O)N1Cc2ccccc2C[C@H]1C(=O)N[C@@H](CO)C(=O)O [[^68Ga]Ga-DOTA-AHX-CG34, metal not drawn] ({DOTA-Ahx}-Y[Cha][Hyp]G[Cit]F[dA][Tic]S-OH)	2.4	2.4	approx. 96%	1.7	3	5.1	4.9	1.2	0.4	1.2	1.1	6.5	6.6	4.2	2.8	0.7	6.3	2.7	2.6	0.8	tissue uptake at 2 h (in vivo; athymic NMRI-Foxn1nu/Foxn1nu, A549 tumor uptake): 1.4 %ID/g; tissue uptake at 2 h (in vivo; [12]): 0.7 %ID/g; tissue uptake at 2 h (in vivo; [13]): 0.5 %ID/g; tissue uptake at 1 h (in vivo; [14]): 1 %ID/g; tissue uptake at 2 h (in vivo; [14]): 0.8 %ID/g; tissue uptake at 1 h (in vivo; [15]): 2.1 %ID/g; tissue uptake at 2 h (in vivo; [15]): 2 %ID/g; tissue uptake at 2 h (in vivo; [16]): 5 %ID/g; tissue uptake at 1 h (in vivo; [17]): 1.7 %ID/g; tissue uptake at 2 h (in vivo; [17]): 1.3 %ID/g; tissue to tissue ratio at 1 h (in vivo; [18]): 5.9; tissue to tissue ratio at 2 h (in vivo; [18]): 13.3; tissue to tissue ratio at 1 h (in vivo; [19]): 0.9; tissue to tissue ratio at 2 h (in vivo; [19]): 0.7; tissue to tissue ratio at 1 h (in vivo; [20]): 2.3; tissue to tissue ratio at 2 h (in vivo; [20]): 2.2; tissue to tissue ratio at 1 h (in vivo; [21]): 8.5; tissue to tissue ratio at 2 h (in vivo; [21]): 11.4; tissue to tissue ratio at 1 h (in vivo; [22]): 5.6; tissue to tissue ratio at 2 h (in vivo; [22]): 6.2
C[C@@H](NC(=O)[C@H](Cc1ccccc1)NC(=O)[C@H](CCCNC(N)=O)NC(=O)CNC(=O)[C@@H]1C[C@@H](O)CN1C(=O)[C@H](CC1CCCCC1)NC(=O)[C@H](Cc1ccc(O)cc1)NC(=O)CCCCCCCCCNC(=O)CN1CCN(CC(=O)O)CCN(CC(=O)O)CCN(CC(=O)O)CC1)C(=O)N1Cc2ccccc2C[C@H]1C(=O)N[C@@H](CO)C(=O)O [[^68Ga]Ga-DOTA-ADX-CG34, metal not drawn] ({DOTA}-[NH(CH2)9CO]Y[Cha][Hyp]G[Cit]F[dA][Tic]S-OH)	14.2	12.5	approx. 68%	2.3	2.7	6.2	4.2	2.8	0.8	2.2	1.2	10.3	5.5	7.1	3.9	1.1	7.8	3.2	2.3	1.3	tissue uptake at 2 h (in vivo; [12]): 0.7 %ID/g; tissue uptake at 2 h (in vivo; [13]): 0.6 %ID/g; tissue uptake at 1 h (in vivo; [14]): 1.7 %ID/g; tissue uptake at 2 h (in vivo; [14]): 1.1 %ID/g; tissue uptake at 1 h (in vivo; [15]): 3.8 %ID/g; tissue uptake at 2 h (in vivo; [15]): 4.4 %ID/g; tissue uptake at 2 h (in vivo; [16]): 5.4 %ID/g; tissue uptake at 1 h (in vivo; [17]): 2.2 %ID/g; tissue uptake at 2 h (in vivo; [17]): 1.5 %ID/g; tissue to tissue ratio at 1 h (in vivo; [18]): 3; tissue to tissue ratio at 2 h (in vivo; [18]): 5.7; tissue to tissue ratio at 1 h (in vivo; [19]): 0.8; tissue to tissue ratio at 2 h (in vivo; [19]): 0.8; tissue to tissue ratio at 1 h (in vivo; [20]): 0.4; tissue to tissue ratio at 2 h (in vivo; [20]): 0.3; tissue to tissue ratio at 1 h (in vivo; [21]): 6.3; tissue to tissue ratio at 2 h (in vivo; [21]): 7.2; tissue to tissue ratio at 1 h (in vivo; [22]): 3.9; tissue to tissue ratio at 2 h (in vivo; [22]): 3.9
CCCCCCCC(=O)NCCCC[C@H](NC(=O)CN1CCN(CC(=O)O)CCN(CC(=O)O)CCN(CC(=O)O)CC1)C(=O)N[C@@H](Cc1ccc(O)cc1)C(=O)N[C@@H](CC1CCCCC1)C(=O)N1C[C@H](O)C[C@H]1C(=O)NCC(=O)N[C@@H](CCCNC(N)=O)C(=O)N[C@@H](Cc1ccccc1)C(=O)N[C@H](C)C(=O)N1Cc2ccccc2C[C@H]1C(=O)N[C@@H](CO)C(=O)O [[^68Ga]Ga-DOTA-KCap-CG34, metal not drawn] ({DOTA}-K(Octanoyl)Y[Cha][Hyp]G[Cit]F[dA][Tic]S-OH)	2.2	1.8	approx. 88%	1.4	2.3	3.3	2.9	0.6	0.2	1.1	0.8	5.8	6.5	1.7	1.2	0.6	4.9	2.4	1.7	0.6	tissue uptake at 2 h (in vivo; [12]): 0.5 %ID/g; tissue uptake at 2 h (in vivo; [13]): 0.4 %ID/g; tissue uptake at 1 h (in vivo; [14]): 0.9 %ID/g; tissue uptake at 2 h (in vivo; [14]): 0.7 %ID/g; tissue uptake at 1 h (in vivo; [15]): 2.3 %ID/g; tissue uptake at 2 h (in vivo; [15]): 1.9 %ID/g; tissue uptake at 2 h (in vivo; [16]): 4 %ID/g; tissue uptake at 1 h (in vivo; [17]): 1.4 %ID/g; tissue uptake at 2 h (in vivo; [17]): 1.1 %ID/g; tissue to tissue ratio at 1 h (in vivo; [18]): 5.6; tissue to tissue ratio at 2 h (in vivo; [18]): 18.2; tissue to tissue ratio at 1 h (in vivo; [19]): 0.7; tissue to tissue ratio at 2 h (in vivo; [19]): 0.6; tissue to tissue ratio at 1 h (in vivo; [20]): 1.6; tissue to tissue ratio at 2 h (in vivo; [20]): 1.8; tissue to tissue ratio at 1 h (in vivo; [21]): 6.6; tissue to tissue ratio at 2 h (in vivo; [21]): 7.2; tissue to tissue ratio at 1 h (in vivo; [22]): 3.7; tissue to tissue ratio at 2 h (in vivo; [22]): 4.3
